These are literature values, as cited in PMC4321732.

The target in data set [1] is Histone H4K20me2 (Homo sapiens) (UniProt P62805).
Data set [2] has as its target p53K382me2 (Homo sapiens) (UniProt P04637).
For data set [3], the target named is p53K370me2 (Homo sapiens) (UniProt P04637).
p53K370me2 (Homo sapiens), sequence (P04637 whole entry): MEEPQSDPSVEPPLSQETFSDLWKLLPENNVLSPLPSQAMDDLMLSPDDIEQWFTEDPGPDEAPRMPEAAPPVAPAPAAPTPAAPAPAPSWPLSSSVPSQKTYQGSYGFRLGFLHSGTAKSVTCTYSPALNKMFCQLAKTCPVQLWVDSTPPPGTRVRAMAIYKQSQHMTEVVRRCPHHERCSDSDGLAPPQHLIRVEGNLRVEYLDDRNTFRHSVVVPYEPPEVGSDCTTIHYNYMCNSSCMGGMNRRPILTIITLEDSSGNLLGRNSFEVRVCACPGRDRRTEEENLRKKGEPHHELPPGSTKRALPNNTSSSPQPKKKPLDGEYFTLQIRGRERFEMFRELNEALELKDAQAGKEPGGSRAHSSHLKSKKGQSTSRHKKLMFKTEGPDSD

53BP1 TTD tandem Tudor domain, sequence (Q12888 1484-1603): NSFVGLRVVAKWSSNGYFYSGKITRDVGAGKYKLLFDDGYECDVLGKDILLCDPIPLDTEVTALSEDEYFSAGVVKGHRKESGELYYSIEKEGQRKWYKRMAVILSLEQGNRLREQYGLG
p53K382me2 (Homo sapiens), sequence (P04637 whole entry): as the sequence (P04637 whole entry) above

In general, Kd refers to the equilibrium constant for the complex coming apart. As for “53BP1 TTD tandem Tudor domain (from UniProt Q12888)”, the Kd is 1300 nM in data set [1], 900 nM in data set [2] and 20000 nM in data set [3].
